Measured values reported in the DeepSol protein solubility set.

Assay: soluble on expression in E. coli; label from the status in PepcDB or PDB records

| Sequence | soluble on expression in E. coli |
| --- | --- |
| MAHHHHHHMEPLIIDNLYKFGDEEVRLGIDEAGRGPVLGPMVYAGFYCNKEHEKLLKEMKIDDSKKISEADREMMFHKLNNSSLPFGWRIHVLMPQDISAKMLKKQKYNLNEISHDTAISIIDHVISRGCNLTEVFVDTVGKPSVYEEKLKRLFPHIKCTVKEKADSLYPVVSAASICAKVTRDFLIKKWKYEEPLVNIDKGFGSGYPGDPITKNFLKNNFDTVFGFPSIVRFSWSTADNMLETMGEQIEWYDDIENNDSKAIKRKTPFDYSKLQKPFVQRSLFYSKVGLDLVENL | not soluble |
| MSSSSESDSEGERKLPLSYRRKRRRDSSSTTNSEVSDNDRKKRQNEKRRSRESSKMKHQKTAKRDKPMWKEEGEISCDSESDVCNSSSSNNRSRCRDRRRRTDYGRRRHRNSDSRSHERWSTRRRQTTPEGNFRCDECGCNHYTLKGLIHHEMNDHNLNAKCHLCQKSFENKKTFREHCELDHTPEVVRCVFCKSSFDQPLEMNDEQWAHFFAHIYGEILYSRLADYEDRALNTA | not soluble |
| GSHMRLDKFIAQQLGVSRAIAGREIRGNRVTVDGEIVRNAAFKLLPEHDVAYDGNPLAQQHGPRYFMLNKPQGYVCSTDDPDHPTVLYFLDEPVAWKLHAAGRLDIDTTGLVLMTDDGQWSHRITSPRHHCEKTYLVTLESPVADDTAEQFAKGVQLHNEKDLTKPAVLEVITPTQVRLTISEGRYHQVKRMFAAVGNHVVELHRERIGGITLDADLAPGEYRPLTEEEIASVV | soluble |
| TLTVQARQLLSGIVQQQNDLLRAIEAQQHLLQLTVWGIKQLQARSGGRGGWMEWDREINNYTSLIHSLIEESQNQQEKNEQELLEL | soluble |
| MRSSTIPAITPAYDPWEAYVDIKEYGKLQLTNIEFTTTTLCNMRCEHCAVGYTLTMKDPEALPLDMLLRRLEEIPHLRSLSITGGEPMLSLKSVEQYVVPLLRYAHERGVRTQLNSNLTLDLSRYEPVIPYLDVLHISHNWGTVDDFVEGGFAMMERKPTRAQREKYFQRMLDNAKALANAGVMVSAETMLNKRTVRHLEAIHRQVVEEMGCQRHEIHPMYPSDFASALETLSLDELREAIHHLLDIRDENVWMLFGTLPFYPCSDNEEDVRLLKRLYESKNVTVRNDPDGRSRLNVNIFTGDVIVTDFGDEPPLGNIIHDSLPDVYDKWRRSKLARELLCHCPSARCLGPNVLVKQTYYRGVDFTKRSARIGR | not soluble |
| MSLTQRIDFQTDPSRYRHWRVAYDGEIANLYMDVDEQGGLFPGYELKLNSYDLGVDIELADIVQRMRFEHPEVKVVVMQSGKDRVFCAGANIRMLGGASHAHKVNFCKFTNETRNTYEAAEADSGQKYIAAVKGACAGGGYELALACNYIMLTNDSSSSVALPEVPLLAVLPGTGGLTRVTDKRKVRRDLADVFCSVEEGVRGQRAVDWRLVDEIAPNSKFDEVVQERAREFASASVKPSGLTGIALTPLDRRFAEDGSVTYSTVEVVVEREAGRATLTISGPTDAAPDTVDALQAQGAEAWILRAARELDDAILHLRLNERRIGTLVIQTQGDGAAVAAHEALLLENRDHWLANEILQHWKRVLKRVDMTSRSLVAIVEHGSCFAGPLAELLWAVDRSYMMLEEFEGDNRPLAAITLSPGNFGTYPMGNDLSRLATRFLGTPEAVEAARARIGEALEAEEAEKLGLVTYVLDDIDWEDEVRVFLEERASFSPDAMTGMEANLRFAGPETMETRIFGRLTAWQNWIFQRPNAVGPDGALQRYGTGVRGDYDMERVEGHHHHHH | soluble |
| MSLSLENFGNFLTLDEKHSFIKKYFKEFYTKDFKLFASKDKHYRTRAELSFYHENDTLFYAMFDPKSKKKYIIEYLDFADEKICAFMPRLLEYLRQDNKLKEKLFGVEFLTTKQELSITLLYHKNIEDIKSNLENLSNILHINLIARSKGKKLIFKTENLRQTLNIQDRKIFYEFNNDCFIQPNTAINEKMITWVCEILNTQKRMDLLELYCGYGNFTLALAPFFFKILATEISKSNINFALKNCELNNTTNIHFARLSSEELSLAIKKEREFFRLKDIRLDDFNFSHVLVDPPRAGLDKSVIDLIKKYGNIIYISCNPMTLKENLKELSLTHRVEEFALFDQFVNTPHLECGVFLSKVEGHHHHHH | soluble |
| MGSDKIHHHHHHMPLSPQQDILEIDQDASVLRFAPQAGGRLMSWTIDGEAVIHWPEHADWSQPARIRGGNPLLFPFLGRHRVDGKIGYWRDAKGTVRELPMHGFARDLPFEAHADVHGAGLRMILTDSTATRHGYPFGFRLETAYCLADARTLDVTFTTTNTGDSRLPSRLPYYAGHHFYFTLPHTQRAATSLELPRTERRHQQDDGSISAAEPGEARYTLDEARIQDRFHCLAGAPDRPVRLVAPGLDRIVTIDLQRPDSIPWYAVTTWTEAAESDFYCVEPWLGLPDAIHNGMGLRWLEPGQTEVAALRISVDKLG | not soluble |
| MFTPIDQAIEHFKQNKFVIVMDDAGRENEGDLICAAENVSTEQMAFLVRHSSGYVCAPMTNAIADKLDLPLLRTGMKFESNDDDRHGTAYTITVDVAQGTTTGISAHDRSMTCRALADSSSTPKSFLKPGHICPLRAADGGVLQRRGHTEAGVDLCKLSGLSPVAVIGELVNDDEQGTMMRLNDCQAFGKKHGIPLISIEELAQYLKK | soluble |
| MMNNVKYLSFALILAFSACKSGSASSQEPSEKQDTVKIFNLPQIPVVLNTVEQRTDYMVKHYWDRFDFSDTTYINQAEVPEQAWVDYCDLLEHVPLPVAQTAMKETFNRAEKNRKMLHFFEELADKYLYDPNSPMRNEEFYIPVLEALIASPALDETAKIRPQARLELAQKNRLGTKALNFTYTLDSGVKGTLYQFPAEYTLLFINNPGCHACAEMIEGLKASPVINGFTAAKKLKVLSIYPDEELDEWKKHRNDFAKEWTNGYDKELVIKNKNLYDLRAIPTLYLLDKNKTVLLKDATLQKVEQYLAERG | not soluble |
| GSSMVTGGMASKWDQKGMDIAYEEALLGYKEGGVPIGGCLINNKDGSVLGRGHNMRFQKGSATLHGEISTLENCGRLEGKVYKDTTLYTTLSPCDMCTGAIIMYGIPRCVIGENVNFKSKGEKYLQTRGHEVVVVDDERCKKLMKQFIDERPQDWFEDIGE | soluble |
| MASGPHSTATAAAAASSAAPSAGGSSSGTTTTTTTTTGGILIGDRLYSEVSLTIDHSLIPEERLSPTPSMQDGLDLPSETDLRILGCELIQAAGILLRLPQVAMATGQVLFHRFFYSKSFVKHSFEIVAMACINLASKIEEAPRRIRDVINVFHHLRQLRGKRTPSPLILDQNYINTKNQVIKAERRVLKELGFCVHVKHPHKIIVMYLQVLECERNQTLVQTAWNYMNDSLRTNVFVRFQPETIACACIYLAARALQIPLPTRPHWFLLFGTTEEEIQEICIETLRLYTRKKPNYELLEKEVEKRKVALQEAKLKAKGLNPDGTPALSTLGGFSPASKPSSPREVKAEEKSPISINVKTVKKEPEDRQQASKSPYNGVRKDSKRSRNSRSASRSRSRTRSRSRSHTPRRHYNNRRSRSGTYSSRSRSRSRSHSESPRRHHNHGSPHLKAKHTRDDLKSSNRHGHKRKKSRSRSQSKSRDHSDAAKKHRHERGHHRDRRERSRSFERSHKSKHHGGSRSGHGRHRR | not soluble |
| MQGPPRFGRLGGGAARRAARAQAPLYQEQPNYRDLVELAAEQARQAAAAPPPQLVPMLRDPIPIRFHRRDELLDRFGMDLGVAHRQELPNERIELAEARDQLAEQQRRALEAQRDQLARHNALADDLRARRERIVQEARAHARRADARDARLEAAAAADRRERFLQEAQEADARRAADGDARAELGEQLRALEAAVAGLPEAQAPQLRDRRARFVARLRARRAADAQAGALANEQRALEARLEGDFADLRAAEGRLLHPPPPQVCEFFFFAHFLLKMRKNLENLSQKLRFEVENWKIPLKFEICEILWKNHENCSKKR | not soluble |
| SRFADAVLDQYIGSIHSLCKDQHGCRFLQKQLDILGSKAADAIFEETKDYTVELMTDSFGNYLIQKLLEEVTTEQRIVLTKISSPHFVEISLNPHGTRALQKLIECIKTDEEAQIVVDSLRPYTVQLSKDLNGNHVIQKCLQRLKPENFQFIFDAISDSCIDIATHRHGCCVLQRCLDHGTTEQCDNLCDKLLALVDKLTLDPFGNYVVQYIITKEAEKNKYDYTHKIVHLLKPRAIELSIHKFGSNVIEKILKTAIVSEPMILEILNNGGETGIQSLLNDSYGNYVLQTALDISHKQNDYLYKRLSEIVAPLLVGPIRNTPHGKRIIGMLHLDS | soluble |
| MNITKTLCLCAALSGAAGVQAMENREFVTQQDNTRVNNYQTNRPEASKRLFVSQEVERQIDHIKQLLTNAKLAWMFENCFPNTLDTTVHFDGKEDTFVYTGDIHAMWLRDSGAQVWPYVQLANKDPELKKMLAGVINRQFKCINIDPYANAFNMNSEGGEWMSDLTDMKPELHERKWEIDSLCYPIRLAYHYWKTTGDASVFSDEWLQAIANVLKTFKEQQRKDDAKGPYRFQRKTERALDTMTNDGWGNPVKPVGLIASAFRPSDDATTFQFLVPSNFFAVTSLRKAAEILNTVNRKPALAKECTALADEVEKALKKYAVCNHPKYGKIYAFEVDGFGNQLLMDDANVPSLIALPYLGDVKVTDPIYQNTRKFVWSEDNPYFFKGSAGEGIGGPHIGYDMIWPMSIMMKAFTSQNDAEIKTCIKMLMDTDAGTGFMHESFNKNDPKNFTRAWFAWQNTLFGELILKLVNEGKVDLLNSIQLEHHHHHH | soluble |
| MIMATLVITIGNDDCVNEGINIICNQCRPIYMNEDNKIIVNVVGEEKFGAGHNAEYITKQVDKHLGIIRDYIIEGLTDCYVEYDENGKEIFIPKTK | not soluble |
| MGSDKIHHHHHHMKKSLIELLEARQKATDELAEVKLKKATIEAKMKSSTIEDDDLEQLKTDAESLVSQATAIKETIAGLDSDIEETEEELSKAAKIIKEKQKGNTPMDYLKTKAAALDFVRILMDNEGSANSARKAWEANLVEKGVTNLTKILPEPVLIAIQDAFTNYNGILNHVSKDPRYAVRVALQTQVSQAKGHKAGKTKKDEDFTFLDFTINSATVYIKYAFEYSDLKKDTTGAYFNYVMKELAQGFIRTIERAVVIGDGKSNSAEDKITEIKSIAEETEANLFETQEINVAGVFDNAVLETLVAGIDKMVPNTTPILVTSKAIARKLKLVKDAEGRYIDPQPFAPIATNGNVIAGFQVYIYDWMDGATNPIIAFADQAYKMIGDEAAADRFDDYDVTVNRRHIELASVMGGRLAQYKSAVKFTNPAG | not soluble |
| MGSDKIHHHHHHMKIDELIALAAEQPTRISRRSGVSRSTLKRVGDGTSEPTLSTLREVALALGLDIKVAAHHACDPFAAAAARTLIDASVPENPHNQEILAWLHRFERWNINDPLTLVSEAGTLQGITHRQDAQFVKLNPRGIAELPELFQQHKTKWALSGAAAATVIMGQIVLGNSIVWHEPAHDLDVSALGTIVDVAEDADLILLPATVTELVGSYTQDRLNFVAPVQLVIDLHSLHMFEEADYLTSGWR | not soluble |
| MAKSNSNNSHNEADTLSSLLSSVGSSYDGESDSTFVSTGTTPSSSRRSRLDSFLSTTSSSKSRPRIKSKLPRSSSSGFSGTGSERSISSKRSKIGNTSGNRNKISQSARRRLLQAEIESRRNRSNKSPGSSRKSILKKSPMKKRRSLSRKSLPKKEHIPPVQKFAIIKNPAARNQVRGFVAEYAQDPEFEAFELLVDGIPFVALSLMNAHPDLRGRFKPVPPPTPMKKHTPGINSPRKRPLRRESISSVNSKSVRFTDEGSSFSKRARKSSSGDVDSSIRELGETVSDAMIDTGRQYNDLWKDRAHSVEK | not soluble |
| NGEVEVPKTELEEIQQQCNQVTDDSLESTRRMLNMCEESKEAGIRTLVMLDEQGEQLDRIEEGLDQINQDMKDAEKNLEGMEK | soluble |
